Experimental data reported in the DeepSol protein solubility set.

experiment: soluble on expression in E. coli; label from the status in PepcDB or PDB records

Soluble on expression in E. coli, not soluble:
MGSDKIHHHHHHMLTSDPSESTAHLQRTISNLSARNAKLAELLKASRDKLSILQDQLEDLAAPPSTYGTFLEFSGGRETAEVFTAGRHMRLRISPDVEKAELVPGVQVRLGEASQVVEVCDISTTGQLATLVELLADNRGLICDHTGEERVVKLAAALTEGVDKLPKAGDTLLVDPRAGYAFEVIPKTEVSTLALEEVPDVTYADIGGLNSQIELIHDAVELPFTQPDLYRAYDLKPPKGVLLYGPPGCGKTLIAKAVANSLAQRIGAGNRSYFINVKGPELLNKYVGETERRIRLIFERARELAEEGRPVIVFFDEMESIFRTRGSGVSSDMETTVVPQLLTELDGVESLSNVIIIGATNREELIDPAILRPGRLDVKIRVERPDKQAARDVFARHLKQNIPTAEPIDSLINNAVDHLYADNPYVELSLIDGSTEILHYRDFVSGAMIANIVDRAKKCAIKDHIAGRHSGVASEHLIAAINAENHESEDLPNTSNPDDWSRIIGRHGLRVAHARVLGGQR
MGSDKIHHHHHHMLVEHDISDVRVGMYIIEITVPKNKFRLAKQGWLDNERIIDALKSKSVEKVLIDASKTRIVADQNATTPSPSVATPSVTTKKGTKTSSESVKPKAASVRTKYQFNQEVIKAKQVFAESKAIQAKLFHNAQRGLPLEMESVCKITSESTDLIFNNPNALACVLNIRNKDEYLLEHSVSVSILMTMFALYLKIDRDIVNQLAIGAFLHDVGKIMVPDNILNKPGKLTDDEFFVMKSHARHSVSIMRKTPGISAISMEVAGQHHEKLNGKGYPLGLKGDKISLYGRMSSICDIFDALTATRCYKQGYPQVKCFGILRKLAENNELDIDLVDKFIKCMGVYPVGAVVQLDSNRLAIVESHNIADPIRPNVRPFYRLDPKLFEKGLDVDLSSAADEQIVKCVRADDFELDMQQIIEFLAQEA
MGSDKIHHHHHHMLVFFKERLVLLSVPKTGTTAYQTALRARADIVVSDPPELKHAPIYRYDRFFRPIFEKMFGVEMEIMAVVREPVDWLGSWYRYRRRPFMQGKPNATHGLSFDDFVTAYMQGKRPGFANVGSQARFLTPRPNGCTVSHLFKYENQPGIRAFLQDRLQTEIAPPRENVSPDLPLDLSPEIAERLRRKCAEEFDLHASAT
MGSDKIHHHHHHMLVGREKELHLLHDIQNDDSSHFVAVYGRMREGKTFLIREAFGYRFTFQHAGLSEGGMKEQIYAFTSSLKDAGYEVKKQPQNWLEAFEALKDVIRLSSEKKKIIFIDELSWMDTQKSDLMVALENFWNGFASARKDIVLIVCASATSWMLSKVVHNKGGLYNRLTEQIHLRTFCLRECEAYVKAAGLALNRNQILQYYMIFGGVPYYWGFLKKGLSLSQNIDSILFEKDAPLRDEFKYLYASVFKKPENYVKIIEALGTKKVGMTREEIITSTKIPNSGDLTTKLEELESCGFIRKYNAFGMKKKNAIYQLMDCFTLFYFKFLKSEPTDEHFWTNQINTPAVNTWLGLAFERVCMEHVDQIKFKLGISGVLTEINSWYCKSDPDNGIFGSQIDMLIARKDQVINLCEMKYSQSEYTITEKVDRSIRNKISDLRVVSGTKYAIYPTLITTYGVVENSYSQELQSVVTMDDLFA
MGSDKIHHHHHHMLYAYGARVWALPIFTHQVYLDKPTKPGDKTLSLATTGFDFYVGGRAVLMNGNKREMVDITGIEPDKLEIKRSLLNRFDTSTVVYPLRSAVLTDMPQLTRLSDEVATAQIRLQIHEHNGYAADIRHLPTYRGHPVLEPTSEWSEDITAQYLRLIKQLDNGTALPHYLDTAKNAFQLTNHRFLLDSIEAQHKLRQLFYYLRGRQKAIWVASSTSDLTLANDIVGKNLDIELVYYTTCLLKQAGRQDIRIECTDGSVHYRRILAATVSNNQTERLALDGEALNLKREQVAKISFLTLSRLESDTIDWVHHTDTVASVTVSFRGLRDELEV
MGSDKIHHHHHHMMDTVKNRRTIRKYQQKDITPDLLNDLLETSFRASTMGGMQLYSVVVTRDAEKKEILSPAHFNQPMVKEAPVVLTFCADFRRFCKYCQERNAVPGYGNLMSFLNAAMDTLLVAQTFCTLAEEAGLGICYLGTTTYNPQMIIDALHLPELVFPITTVTVGYPAESPKQVDRLPIEGIIHEESYHDYTAEDINRLYAYKESLPENKLFIEENQKETLPQVFTDVRYTKKDNEFMSENLLKVLRRQGFMD
MGSDKIHHHHHHMMLGPEGGEGYVVKLRGLPWSCSIEDVQNFLSDCTIHDGVAGVHFIYTREGRQSGEAFVELESEDDVKLALKKDRESMGHRYIEVFKSHRTEMDWVLKHSGPNSADSANDGFVRLRGLPFGCTKEEIVQFFSGLEIVPNGITLPVDPEGKITGEAFVQFASQELAEKALGKHKERIGHRYIEVFKSSQEEVRSYSDPPLKFMSVQRPGPYDRPGTARRYIGIVKQAGLDRMRSGAYSAGYGGYEEYSGLSDGYGFTTDLFGRDLSYCLSGMYDHRYGDSEFTVQSTTGHCVHMRGLPYKATENDIYNFFSPLNPVRVHIEIGPDGRVTGEADVEFATHEEAVAAMSKDRANMQHRYIELFLNSTTGASNGAYSSQVMQGMGVSAAQATYSGLESQSVSGCYGAGYSGQNSMGGYD
MGSDKIHHHHHHMMQLLVTGATGFVGKTLCSALRRQSFPVKAIGRAGTIRADALGDQVASIDGQTDWSLILDGINAVIHLAARVHVMREQLADPLAAYRETNVEGTLNLARQAAKAGVKRFVFISSIKVNGEQTLPGKPFTAYDVPAPEDAYGISKFEAEQGLLALARETGMDVVVIRPPLVYGPGVKGNFASMMKLVKSGIPLPLGAIHNQRSLVAIDNLVNLIVTCIDHPAAANQVFLVSDGEDLSTSDLLRRLAKAAGVSSRLMPVSARWLEMGLRMCGKRLIAQRLLGSLQVDISKTRELLGWVPPISVDEGLKRCFSTKG
MGSDKIHHHHHHMMTISNGNLRVDLRLIADMVEPGSRVLDVGCGEGALLDWLGRTKNVDGRGIELSMAGVSAAVSHGLSVIQGDADTDLKDYPSGAFDYVILSQTLQATYAPRTVLSNMLRIGRRAIVSFPNFGHWRVRLHLLTHGRMPVTDTLAYEWYDTPNIHFCTIRDFLDLCRDLGIRVERSIPLDRSGRTMAIPSCEGIANLFADQGLFVLSREG
MGSDKIHHHHHHMNAETPQNLMVASLQAPPVRTVVADPQSVHAAIESRFCCREFLADPVERETMERILRVASWAPSGSNNQPWKVYVVQGASRAALSQKVRAAQDALSQDPTLADNYREPYQYYPVEWVSPYIERRRACGFGLYGVLNIARGDRVRMNEQLLRNFDFFGAPVGIFFTNDEILAEGALVDTAMFVQNVMLAARAEGLHTCVQAAWNRFSSVVLPHIGAQGERLVCALALGHADVDAPVNTFRPDRADPASFTAWLD
MGSDKIHHHHHHMNAMTQVSPLLEMRGICKTFPGVKALDDVSFDIYPGEVHMLLGENGAGKSSLMKVLCGVYVADAGEFHHQGQRVEVSGPADTMRLGIAVIFQEFSLVPYLDIAQNIFLGREPRGRVPGSVDHAKMHAEARRLLDTLGMDISTHTPVHRLGVAQQQMIEIAKALSQNARILVLDEPTAALSERETEKLFGVIARLKADGVSMIYISHRMAEVFALGDRITVMRDGRKVGSYMPGDATPDELVARMVGRKVDMGYTRTRGGPVGEVALDMQGVSADNGIDDITLQVRAGEIVGLAGLVGSGRSEVARAVFGADPVRAGEIRIFGKSMRGGPDKARALGAALIPESRKTEGLALIRSVRDNLLLAGLRRAFPAHWYRSGKAAQLSTREIGRLRIATPSGDQLAQFLSGGNQQKIVIGKWLVAESRLFIFDEPTRGIDVGAKAEIFALIDGLVKQGAAVLLISSELPEIINVCDRTYVMRGGRVAGELAHDAMTEESILQLGMNDA
MGSDKIHHHHHHMNATQTQMRREINEIPDAVERLLTEGAGAVAATAADIRDLQPSYLLSVARGSSDHASTYLKYASELLLGLPMASVGPSVKSIYGVDLHCKGALSISVSQSGKSPDIVQLTSAFRDKGAYTVAITNDAGSPLAETAAAVLPIHAGPELSVAATKTFVTSLVAGLWVLAEVKQDAALLEAILRLPGHLAKAKDCDWSAAIEAIDGQSLYTLGRGPSWAISNEAALKFKETCQIHAESYSAAEVLHGPVSIVGENFPVIAFAAADAAEESVGEMVAALGDKGARVFATTHKAKGAEVLPHVRTDHWITDPIASIVSFYGMVEAVAARRGVNPDAPRHLNKVTETV
MGSDKIHHHHHHMNDALITDALIRGRHAKRGFHRERPVPLETVRDILAVAKYAPSSSNTQPWRCYVVIGDARDRLANAAVEAYRADPENLTPEYPFFPKPLHEPYSARFNTFRGQLGDAQGVPRSDKAGRRRDVERQFRFFDAPIGLIFTMDRRLEWASFLCYGCFLQNIMLAARARGLDTCPQQIWSLQYAVLREQLDIPEGEMVVAGMSLGYADDSLPENNMALRRLELEEFVSVIEG
MGSDKIHHHHHHMNEAFLSLTPAQIRHRLHAAPELSGQETETARRVAGWLEQAGATRIVTGLGGHGVAGVFAGTLPGPRVMFRAELDGLPIDETAEIAWKSTCEHVAHSCGHDGHMAVLLGLAQRLAEQPPTHGETVLLFQPSEETGRGAREVVESSRFEEIAPDHVYALHNLPGKPLGEVSVREGAMTCASRGLIIRLNGLCAHAAHPEQGRNPALAMCRILQGLKRLPQQLPDDQGLVMVTLIHARLGEVAFGTSPGQAEVMATLRTEDDAMMRALAEASVALARAEAEEDDLGIEIDWCDVFQATRNHPAAVASIREAARSLNMPLTALPEAHRWSEDFGWLAAQGQGALLTLGAGERCLPLHNPGYDFPDDLLDTGIALFERLVRLHQSDV
MGSDKIHHHHHHMNEQWFLLGDIHGSAQPVHYFYQKNKERLSLDSSENFMILLGDVGANFALTGQRDHKFKSELSKLPFTFICLRGNHEARVKTVMDKNPDGWETISKYDGSIFVEKEFPYIEYLADGPAVYNFKSYKTLSLPGAYSVDKYYRQARHLTWYKDEQLNEKEMELGRKLCRNEAPFDLVLSHTCPYLYEPTDLFLAGLDQSTVDSTMERYLGEIEFNLDYKRWAFGHFHADRLYPWADGRQMLMLFNENVVNLDKFMNMTEKQSFKDIIA
MGSDKIHHHHHHMNFDFDLPAKALFRAMPICRENTRFNIDGVLIDPDPNGGAWLVATDGKGMLVQYDPDTKVPEKCVVKVSAAWLTETRFDYDMSLIGDLNDIHWCDTRLEFSKDTMTAMSSDFDIAHCLAEAGPDVFCQIRYNPISFPDWRKALDTSANTSELARPVERQTALDTGYLTDLIGWSRGFQVNPAPAGHARLISFVGEPNTFAVLMPMVADATDPLPPLLERAGRADLIQGPQRAAE
MGSDKIHHHHHHMNFPRPLVPATLVQRYKRFLFDAILADGTAITGSCPNTGSMRGLTIPGSPIWLSEHDSPTRKYRHMLEIVEADGTLVGINTGLPNRIAEEAIMAGQVGNLHTYGTLRREQRYGRNSRIDILLSDAEKGLAYVEVKNVHFSRVRGLAEFPDSPTQRGAKHLEELGDMVEAGHRAIMLYLIQRGDCSRFRICRELDPVYARAFERASARGVEAYAVKCAVSPGQIVAAGPIVVDEPVPAVL
